{"source": "paper PMC10315472", "key": {"[1]": {"biological_target": "AMSIN (actinomyces)", "experiment": "SPR"}, "[2]": {"biological_target": "emorisin (Emergomyces orientalis)", "experiment": "SPR"}}}
{"substance": "Spike protein of the SARS-CoV-2 Omicron variant (from UniProt P0DTC2) (natural protein)", "values": [{"measurement": "Kd", "setting": "[1]", "result": 57.9, "unit": "nM"}]}
{"substance": "αRBD (from UniProt P0DTC2) (domain or fragment)", "values": [{"measurement": "Kd", "setting": "[1]", "result": 37.4, "unit": "nM"}]}
{"substance": "ζRBD (from UniProt P0DTC2) (domain or fragment)", "values": [{"measurement": "Kd", "setting": "[1]", "result": 1450, "unit": "nM"}]}
{"substance": "δRBD (from UniProt P0DTC2 319-541) (domain or fragment)", "values": [{"measurement": "Kd", "setting": "[2]", "result": 31.6, "unit": "nM"}, {"measurement": "koff", "setting": "[2]", "result": 0.00202, "unit": "s⁻¹"}, {"measurement": "kon", "setting": "[2]", "result": 64000, "unit": "M⁻¹ s⁻¹"}, {"measurement": "Kd", "setting": "[1]", "result": 76.6, "unit": "nM"}, {"measurement": "koff", "setting": "[1]", "result": 0.0038, "unit": "s⁻¹"}, {"measurement": "kon", "setting": "[1]", "result": 49600, "unit": "M⁻¹ s⁻¹"}]}
{"substance": "βRBD (from UniProt P0DTC2 319-541) (domain or fragment)", "values": [{"measurement": "Kd", "setting": "[2]", "result": 49.5, "unit": "nM"}, {"measurement": "koff", "setting": "[2]", "result": 0.00561, "unit": "s⁻¹"}, {"measurement": "kon", "setting": "[2]", "result": 11400, "unit": "M⁻¹ s⁻¹"}, {"measurement": "Kd", "setting": "[1]", "result": 310, "unit": "nM"}, {"measurement": "koff", "setting": "[1]", "result": 0.00536, "unit": "s⁻¹"}, {"measurement": "kon", "setting": "[1]", "result": 17300, "unit": "M⁻¹ s⁻¹"}]}
{"substance": "γRBD (from UniProt P0DTC2 319-541) (domain or fragment)", "values": [{"measurement": "Kd", "setting": "[1]", "result": 607, "unit": "nM"}, {"measurement": "koff", "setting": "[1]", "result": 0.00545, "unit": "s⁻¹"}, {"measurement": "kon", "setting": "[1]", "result": 8970, "unit": "M⁻¹ s⁻¹"}]}
